# Measurements published in patent US20050095247A1 (UNIVERSITY OF BRITISH COLUMBIA, published 2005).
# B1: macrophage EF-1α (murine, from RAW 264.7 cells) (other)
# chain: GKEKTHINIVVIGHVDSGKSTTTGHLIYKCGGIDKRTIEKFEKEAAEMGKGSFKYAWVLDKLKAERERGITIDISLWKFETSKYYVTIIDAPGHRDFIKNMITGTSQADCAVLIVAAGVGEFEAGISKNGQTREHALLAYTLGVKQLIVGVNKMDSTEPPYSQKRYEEIVKEVSTYIKKIGYNPDTVAFVPISGWNGDNMLEPSANMPWFKGWKVTRKDGSASGTTLLEALDCILPPTRPTDKPLRLPLQDVYKIGGIGTVPVGRVETGVLKPGMVVTFAPVNVTTEVKSVEMHHEALSEALPGDNVGFNVKNVSVKDVRRGNVAGDSKNDPPMEAAGFTAQVIILNHPGQISAGYAPVLDCHTAHIACKFAELKEKIDRRSGKKLEDGPKFLKSGDAAIVDMVPGKPMCVESFSDYPPLGRFAVRDMRQTVAVGVIKAVDKKAAGAGKVTKSAQKAQKAK
# notes: also called host EF-1α; host-EF-1α
# Molecular target: T1, calmodulin (Homo sapiens (Human), UniProt P0DP23 2-149)
# T1 construct: also called calmodulin-agarose
# Experiment: pull-down of purified protein on calmodulin-agarose; anti-EF-1α immunoblot
binder,measurement,value
B1,binding result,binds
